The target in the test is Nogo-B receptor construct NgBR(79–293) (human) (UniProt Q96E22). Description: SEC; size exclusion (Superdex 200 10/300 GL) in-line with synchrotron SAXS; 20 mg/mL NgBR(79-293), 20 mM HEPES pH 7.5, 150 mM NaCl, 5% glycerol, 1 mM TCEP, 25°C. Background: SEC sorts molecules by how far they enter the pores of the column.

Experimental findings from publication PMC5773207 are described below.

Several values for one entry are separate records, joined by “and”; a condition that tells them apart may be missing. Equal entries are not always repeated.

The term stoichiometry N denotes a count of units in the complex or per binding partner.

On to “Nogo-B receptor construct NgBR(79–293) (from UniProt Q96E22 79-293) (domain or fragment)”, for which the stoichiometry N was 2 and 4.
